From the supplement of paper PMC9170038

Tested on: MS2 coat protein
Assay: apparent KD of MS2 coat protein; designed switch direction (-1 OFF switch, 1 ON switch): -1; higher = weaker reporter binding
Outline: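 Apparent KD, taken as the median over clusters for each design, was obtained by curve-fitting normalised cluster fluorescence. Designed RNA switches had been transcribed on Illumina chips by stalled E. coli RNA polymerase and titrated with SNAP-549-labelled MS2 coat protein, doubling from 0.7 or 1.5 nM to 3 µM.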

[1] = input ligand: microRNA oligo, concentration not stated
[2] = Eterna round: R95, input ligand: microRNA oligo, concentration not stated
[3] = Eterna round: R95, input ligand: FMN 200 uM
[4] = Eterna round: R95, input ligand: none

Sequence | apparent KD of MS2 coat protein (input ligand: FMN 200 uM) [µM] | apparent KD of MS2 coat protein [1] [µM] | apparent KD of MS2 coat protein (input ligand: none) [µM] | apparent KD of MS2 coat protein [2] [µM] | apparent KD of MS2 coat protein [3] [µM] | apparent KD of MS2 coat protein [4] [µM]
AAUAAACAUGAGGAUCACCCAUGUGAGGAUAUACAGAUUAUAAGAAAAAAAAAAAAAAGUAGAAGGCACAUAUA [Default title] (Eterna round: R96, puzzle: Exclusion 1) | 0.0396 | 0.0299 | 0.0376 | – | – | –
UUAAUGUGAGGAUAUCAGGUGUGCUAGCGUACUGGUACAUCUGAGAAGGCACAUGAGGAUCACCCAUGUUCCUU [JL-ex4-3.27 Brourd mod] (puzzle: Exclusion 4) | – | – | – | 0.0162 | – | –
UUAUGAGAGCAGGAUAUCUUAUAAGUGUAUUAAAGAGAAGGGCUCACAUGAGGAUCACCCAUGUGGUCCUAGAU [LRO-Excl6-17-mod of 4.86 by jal] (Eterna round: R97, puzzle: Exclusion 6) | 0.106 | – | 0.0333 | – | – | –
CGUAGCAAUGUGAGGAUAUCUAGAGCCUCGGCUCUAGAGAAGGCACAUGAGGAUCACCCAUGUGAUUAGCUACG [BmEx4/9-B2] (Eterna round: R97, puzzle: Brourd's mod of Exclusion 4) | 0.597 | – | 0.405 | – | – | –
ACAUGAGGAUCACCCAUGUGACCACAAUGGCUGAUGUAACAACAGGAUAUGUGUGAAUAUCUAACACAGAAGGGUUUUGACUGG [Deportation 58 - Jieux - Exclusion NG 3] (Eterna round: R96, puzzle: Exclusion NG 3) | 0.0769 | 0.0593 | 0.0759 | – | – | –
UUAUACAAGCAAAGAUCCCACAUGAGGAUCACCCAUGUGCUCGUCUUAUAAGGAACUGUGACGAAAGUCACGGUUCC [Mat - Sensor, turn-off var - Eli Mod - D100] (Eterna round: R97, puzzle: Sensor, turn-off variant 1) | 0.0362 | – | 0.0372 | – | – | –
UUUAAUUUUUUUUUUUUACAAGCUUUUUGCUCGUCUUAUACAUGAGGAUCACCCAUGUAAGUGGGAAAUGAAUUAUC [JMF 99] (puzzle: Sensor v3, turn-off variant 2) | – | – | – | 0.419 | 0.0533 | 0.0779
UUGAAGUCAUCAGGAUAUAGUUUUAAUGUCAUGCUUAAGUUCUUACAUGAGGAUCACCCAUGUCGCUAGAAGGGAUUAUAGAUU [JR_ExcNG2_Sub078] (Eterna round: R96, puzzle: Exclusion NG 2) | 0.0668 | 0.0426 | 0.0677 | – | – | –
CCUGUACAUGAGGAUCACCCAUGUUAGGAUAUCUCGCCGUCGGCUUGCCGACGGUAUUAGAGAAGGGACAAGGG [JL Tixe mod 4] (puzzle: Exclusion 1) | – | – | – | 0.031 | – | –
GCUCUUGGGCAAGGAUAUCCUGCGCGGUUCCGGUUCGUGUCUGUCACAUGAGGAUCACCCAUGUGGGAGAAGGUGCCUGCGGUG [Design 74] (Eterna round: R96, puzzle: Exclusion NG 2) | 0.0286 | 0.0123 | 0.0159 | – | – | –
CGACGUGGAGUGAGGAUAUCGUGUUCGAAAGAACGUGAGAAGGCACAUGAGGAUCACCCAUGUGAUUCACGUCG [Omei Ex4B A5] (Eterna round: R97, puzzle: Brourd's mod of Exclusion 4) | 0.0277 | – | 0.0206 | – | – | –
CUCAUGUGAGGAUAUGUGAUCAACCUUCUAUAUAGAUGAUGACAGAAGGCACAUGAGGAUCACCCAUGUAGAUC [Ex4 - 3 - 19] (puzzle: Exclusion 4) | – | – | – | 0.0379 | – | –
AAAUUCAGAGGAUAUGCGCAUAGAUAAGACUUUUUUUCUUAACAUGAGGAUCACCCAUGUAGAAGGCUGUAAAA [Ex2 #60] (Eterna round: R97, puzzle: Exclusion 2) | 0.0205 | – | 0.0184 | – | – | –
GCCGAAAAAGUGAGGAUAUACCUAUGGAUACAUAGGUAGAAGGCACAUGAGGAUCACCCAUGUGUCCUAACGGC [Eli bmx4 4.29] (Eterna round: R97, puzzle: Brourd's mod of Exclusion 4) | 0.018 | – | 0.0152 | – | – | –
AGAUGGCGAGGAUAUACAUGAGGAUCACCCAUGUGAGAUAAGAAAGUGAGGAAGAAAAGUAGAAGGCGCUGUCA [Mat - Exclusion 3 - Mod of Salish D12] (puzzle: Exclusion 3) | – | – | – | 0.0586 | 0.281 | 0.0584
AUGCGACAUGAGGAUCACCCAUGUGAGGAUAUGCGAAUGCAUACUUCGGUGUGAUAGAGCAGAAGGCGCAGGUA [EX1 #16] (Eterna round: R97, puzzle: Exclusion 1) | 0.56 | – | 0.831 | – | – | –
UUGAACAUAGGAUAUAGUUGUUUGUACAUGAGGAUCACCCAUGUUAGGGAUGUUUUGUUUCUAGAAGGAUGUUGAU [JR_E5_Sub001] (puzzle: Exclusion 5) | – | – | – | 0.128 | – | –
GGCCCACAUGAGGAUCACCCAUGUGAGGAUAUGUUAGUUUCGGCGAAAGCCGAAAUUAACAGAAGGCACAGGCC [JR_Exclusion1_Sub022] (puzzle: Exclusion 1) | – | – | – | 0.0108 | – | –
UAGGUGUGAGGAUAUGGUAAAGAUAAGAUGAUGAAAGAACUCCAGAAGGCACAUGAGGAUCACCCAUGUAGAUA [Mat - Exclusion 4 - Mod of JL - D31] (puzzle: Exclusion 4) | – | – | – | 0.02 | 0.0349 | 0.0205
